Data as given in paper PMC9830665.

Tests used:
[1] = molecular target: uridine-specific nidoviral endoribonuclease (NendoU) protein from SARS-CoV-2 (SARS-CoV-2); test: SEC
[2] = molecular target: uridine-specific nidoviral endoribonuclease (NendoU) protein from SARS-CoV-2 (SARS-CoV-2); test: dynamic light scattering

uridine-specific nidoviral endoribonuclease (NendoU) protein from SARS-CoV-2 (enzyme)
stoichiometry N [1]: 6 | stoichiometry N [2]: 6
